Results: US20160060347A1 (MorphoSys, published 2016)
Changes are numbered by the printed parent chain.

T1: human CXCR2 (human, UniProt P25025 1-360)
T1 construct: Expressed on Flp-In CHO cells (FACS, Fab-ZAP, ADCC, CDC) or on bought PathHunter CHO cells (beta-arrestin assay); the construct in the PathHunter cells is not described; also called chemokine receptor CXCR2; CXCR2 CHO Flp-In cells
T1 sequence: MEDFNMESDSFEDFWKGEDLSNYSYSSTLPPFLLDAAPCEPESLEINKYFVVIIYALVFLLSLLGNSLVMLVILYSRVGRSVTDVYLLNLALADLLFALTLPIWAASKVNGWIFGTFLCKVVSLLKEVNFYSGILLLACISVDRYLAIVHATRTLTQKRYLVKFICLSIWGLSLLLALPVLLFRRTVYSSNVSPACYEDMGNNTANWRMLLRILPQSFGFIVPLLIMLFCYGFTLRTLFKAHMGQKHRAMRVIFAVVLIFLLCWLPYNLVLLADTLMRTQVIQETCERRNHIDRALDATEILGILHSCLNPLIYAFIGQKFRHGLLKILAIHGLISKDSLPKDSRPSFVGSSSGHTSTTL

B1: CX2-Mab #18 (Fab, V domains shown)
VH: EVQLLESGGGLVQPGGSLRLSCAASGFTFSRYAMSWVRQAPGKGLEWVSVISSDGGTTYYADSVKGRFTISRDNSKNTLYLQMNSLRAEDTAVYYCARIFSYALDYWGQGTLVTVSS
VL: DIVLTQPPSVSGAPGQRVTISCSGSSSNIGSYYVNWYQQLPGTAPKLLIYRNSKRPSGVPDRFSGSKSGTSASLAITGLQAEDEADYYCSSYDAHSDSVVFGGGTKLTVLG
B2: CX2-Mab #19 (Fab, V domains shown)
VH: EVQLVQSGAEVKKPGESLKISCKGSGYSFTSYWISWVRQMPGKGLEWMGIIDPANSYTRYSPSFQGQVTISADKSISTAYLQWSSLKASDTAMYYCARVERRPRYYGSNYYGMDVWGQGTLVTVSS
VL: B1 VL with Y32N, R51G, K54N, S91V, Y92R, A94S, H95E, S96G, D97R, S98Y
B3: CX2-Mab #15 (Fab, V domains shown)
VH: EVQLLESGGGLVQPGGSLRLSCAASGFTFSRYWMSWVRQAPGKGLEWVSVISYSGSETYYADSVKGRFTISRDNSKNTLYLQMNSLRAEDTAVYYCARGRAYGYFDPWGQGTLVTVSS
VL: DIVLTQPPSVSGAPGQRVTISCSGSSSNIGKKTVSWYQQLPGTAPKLLIYRNNQRPSGVPDRFSGSKSGTSASLAITGLQAEDEADYYCGSTTSSHLYVFGGGTKLTVLG
B4: CX2-Mab #10 (Fab, V domains shown)
VH: B3 VH
VL: DIVLTQPPSVSGAPGQRVTISCSGSSSNIGKKTVSWYQQLPGTAPKLLIYRNNQRPSGVPDRFSGSKSGTSASLAITGLQAEDEADYYCSSTTSSSRSVVFGGGTKLTVLG
B5: CX2-Mab #17 (Fab, V domains shown)
VH: B3 VH with R31S, W33S, V50Y, Y53S, S54A, E57N, P107Y
VL: DIVLTQPPSVSGAPGQRVTISCSGSSSNIGSNTVYWYQQLPGTAPKLLISSNTKRPSGVPDRFSGSKSGTSASLAITGLQAEDEADYYCQVTDFRLHHVVFGGGTKLTVLG
B6: CX2-Mab #16 (Fab, V domains shown)
VH: B3 VH
VL: B3 VL with T93G, S94Y, S95R, H96G
B7: CX2-Mab #12 (Fab, V domains shown)
VH: B3 VH with E1Q
VL: B4 VL with S90Q, T93D, S95T, S96H, S98M, V99A
B8: CX2-Mab #1 (IgG1 format) (antibody, V domains shown)
VH: QVQLVQSGAEVKKPGSSVKVSCKASGGTFSSYAISWVRQAPGQGLEWMGGIIPIVGEAKYAQKFQGRVTITADESTSTAYMELSSLRSEDTAVYYCARDSSGYDGYYAFAYWGQGTQVTVSS
VL: DIVLTQPPSVSGAPGQRGTISCSGSSSNIGSSSVNWYQQLPGTAPKLLIYRNNQRPSGVPDRFSGSKSGTSASLAITGLQAEDEADYYCGATDFSANQVVFGGGTKLTVLG
notes: Fab converted into IgG1 format, expressed in a human cell line, protein A purified; also called parental
B9: CX2-Mab #6 (IgG1 format) (antibody, V domains shown)
VH: EVQLLESGGGLVQPGGSLRLSCAASGFTFSSYTMSWVRQAPGKGLEWVSAIHSSGSSTYYADSVKGRFTISRDNSKNTLYLQMNSLRAEDTAVYYCARVPAYYGFDHWGQGTLVTVSS
VL: DIELTQPPSVSVSPGQTASITCSGDSLGAFYVHWYQQKPGQAPVLVIYRTNNRPSGIPERFSGSNSGNTATLTISGTQAEDEADYYCASYASRNRVFGGGTKLTVLG
notes: Fab converted into IgG1 format, expressed in a human cell line, protein A purified
B10: CX2-Mab #2 (IgG1 format) (antibody, V domains shown)
VH: QVQLVQSGAEVKKPGASVKVSCKASGYTFSRYAMHWVRQAPGQGLEWMGVINPYNGNTRYAQKFQGRVTMTRDTSISTAYMELSRLRSEDTAVYYCARGSHIQAGAFDYWGQGTLVTVSS
VL: DIQMTQSPSSLSASVGDRVTITCRASQGINNRLNWYQQKPGKAPKLLIYDGSSLQSGVPSRFSGSGSGTDFTLTISSLQPEDFATYYCQQYIHFPVTFGQGTKVEIKR
notes: as for B9
B11: CX2-Mab #3 (IgG1 format) (antibody, V domains shown)
VH: B3 VH with R31S, Y59F, A101V, Y102G, G103Y, Y104A, P107Y
VL: DIVLTQPPSVSGAPGQRVTISCSGSSSNIGVNYVNWYQQLPGTAPKLLIYSNNQRPSGVPDRFSGSKSGTSASLAITGLQAEDEADYYCQSRASGFYSVVFGGGTKLTVLG
notes: as for B8
B12: CX2-Mab #5 (IgG1 format) (antibody, V domains shown)
VH: EVQLLESGGGLVQPGGSLRLSCAASGFTFNSNAMSWVRQAPGKGLEWVSFISYSGSHTYYADSVKGRFTISRDNSKNTLYLQMNSLRAEDTAVYYCARYTRFLSRPAFDPWGQGTLVTVSS
VL: DIVLTQPPSVSGAPGQRVTISCTGSSSNIGAGYDVHWYQQLPGTAPKLLIYYNSKRPSGVPDRFSGSKSGTSASLAITGLQAEDEADYYCGAYDRKMNSYVFGGGTKLTVLG
notes: as for B9
B13: CX2-Mab #4 (IgG1 format) (antibody, V domains shown)
VH: EVQLLESGGGLVQPGGSLRLSCAASGFTFSSNGMSWVRQAPGKGLEWVSAISSSGSKTYYADSVKGRFTISRDNSKNTLYLQMNSLRAEDTAVYYCARGYGFDVWGQGTLVTVSS
VL: DIVLTQPPSVSGAPGQRVTISCSGSSSNIGVNIVNWYQQLPGTAPKLLIYSTSNRPSGVPDRFSGSKSGTSASLAITGLQAEDEADYYCATRDGISKSVVFGGGTKLTVLG
notes: as for B8

Target: T1, human CXCR2
Test: FACS, CXCR2 CHO Flp-In cells, Fab
Method: (§1) Human CXCR2-expressing Flp-In™ CHO cells were harvested at ˜80% confluence washed once with PBS (Gibco, Cat #14190-094) and detached using Versene (Invitrogen, Cat #15040-033). Subsequently, cells were counted and centrifuged at 250×g for 5 min at 4° C. Afterwards, cells were diluted in Superblock (Thermo Fisher Perbio Science, Cat #37515) to a cell concentration of 2E+05-1E+06/mL and 100 μL/well were transferred to 96-well microtiter plate (Nunc, Cat#163320). Cells were once centrifuged, supernatant discarded and antibodies added at 1 μg/mL (unless stated otherwise), incubated for 1 h at 4° C. and washed twice with FACS buffer (PBS/3% FCS/0.02% NaN3). Binding of anti-CXCR2 antibodies was detected by incubation of Phycoerythrin-conjugated anti-human IgG (Dianova, Cat #109-116-097) for 1 h at 4° C. Samples were subsequently measured using FACS Array (Becton Dickinson).

binding result | Binder
binds | B1
binds | B2
binds | B3
binds | B4
binds | B5
binds | B6
binds | B7

Target: T1, human CXCR2
Test: FACS, CXCR2 Flp-In CHO cells, IgG1
Method: as §1
All six Fabs were converted into IgG1 format and were expressed in a human cell line and purified via protein A chromatography for further analysis. All antibodies were tested for specific CXCR2 binding on CXCR2-expressing CHO Flp-In™ cells by FACS. Additionally, inhibition of CXCR2 mediated beta-arrestin signaling by the antibodies was analyzed. Furthermore, IC₅₀ concentrations for cytotoxicity of respective antibodies via secondary immunotoxin in a Fab-ZAP assay using CXCR2 expressing CHO Flp-In™ cells were determined together with the capability of the antibodies to induce complement-dependent cellular cytotoxicity (CDC) and antibody-dependent cellular toxicity (ADCC). Respective experimental settings as outlined in Example 3 were used (data of one representative experiment are shown).

EC50 | Binder
400 pM | B8
100 pM | B9
> 667000 pM | B10
200 pM | B11
17700 pM | B12
100 pM | B13

Target: T2, ECL3 peptide aa273-295, BSA-coupled (human; bovine, coupled to carrier protein BSA; C-terminal cysteine introduced to enable coupling)
T2 construct: also called CXCR2 aa273-295 BSA; peptides representing the extracellular domain 3
Test: ELISA, coated peptide-BSA, Fab
Method: (§2) 384-well Maxisorp plates (Nunc; Cat. #460518) were coated with respective CXCR2 and control peptides coupled either to BSA or Transferrin (TRF) at 1-5 μg/mL and incubated o/n at 4° C. […] After three washing steps, antibodies were added at 5-10 μg/mL and titrated in some experiments. Antibodies were incubated 1 h at room temperature and plates were subsequently washed. Binding of anti-CXCR2 antibodies was detected by using alkaline phosphatase-conjugated anti-human IgG, (Dianova, Cat #109-055-097). AttoPhos fluorescence substrate (Roche, Cat #1484281) was added according to instructions of the manufacturer and fluorescence was measured (excitation at 430 nm, emission at 535 nm) using a microplate reader.

T2 sequence (peptide, as listed by the source limits assumed, chain 1 of 2): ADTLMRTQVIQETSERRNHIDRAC
T2 sequence (P02769 25-607 limits assumed, chain 2 of 2): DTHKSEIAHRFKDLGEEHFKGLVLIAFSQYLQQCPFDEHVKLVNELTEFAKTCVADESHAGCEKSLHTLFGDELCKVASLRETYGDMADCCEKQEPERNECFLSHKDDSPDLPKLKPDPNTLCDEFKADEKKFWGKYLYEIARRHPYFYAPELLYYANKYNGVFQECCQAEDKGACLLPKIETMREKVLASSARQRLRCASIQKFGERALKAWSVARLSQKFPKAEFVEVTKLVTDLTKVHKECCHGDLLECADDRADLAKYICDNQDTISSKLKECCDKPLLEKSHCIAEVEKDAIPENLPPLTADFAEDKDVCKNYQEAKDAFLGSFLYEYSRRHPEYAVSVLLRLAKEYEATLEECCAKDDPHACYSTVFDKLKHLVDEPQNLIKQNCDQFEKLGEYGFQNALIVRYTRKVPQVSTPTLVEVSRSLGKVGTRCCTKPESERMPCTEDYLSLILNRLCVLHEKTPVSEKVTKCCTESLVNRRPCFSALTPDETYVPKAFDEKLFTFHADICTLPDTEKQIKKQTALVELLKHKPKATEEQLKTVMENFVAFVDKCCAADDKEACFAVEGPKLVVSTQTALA

binding result | Binder
binds | B1
binds | B2
binds | B3
binds | B4
binds | B5
binds | B6
binds | B7

Target: T3, N-terminal peptide aa1-48, BSA-coupled (human; bovine, coupled to carrier protein BSA; C-terminal cysteine introduced to enable coupling)
T3 construct: also called CXCR2 aa1-48 BSA
Test: ELISA, coated peptide-BSA, Fab
Method: as §2

binding result | Binder
binds | B1
binds | B2
binds | B3
binds | B4
binds | B5
binds | B6
binds | B7

Target: T4, hu_CXCR2_N-term (1-17)-BSA (human; bovine, coupled to carrier protein BSA; C-terminal cysteine introduced to enable coupling)
T4 construct: Synthetic linear peptide chemically coupled to the carrier; also called CXCR2_aa1-17_BSA; CXCR2 aa1-17 BSA
Test: ELISA, coated peptide-BSA, Fab
Method: as §2

T4 sequence (P02769 25-607 limits assumed): as the sequence (P02769 25-607 limits assumed, chain 2 of 2) above

binding result | Binder
binds | B1
binds | B2
binds | B3
binds | B4
binds | B5
binds | B6
binds | B7
